Results reported in publication PMC10517016, “SCARB2 drives hepatocellular carcinoma tumor initiating cells via enhanced MYC transcriptional activity” (Nature Communications, 2023).

Target: T1, Purified His-tagged MYC (UniProt P01106 1-454)
T1 construct: MYC, purified recombinant protein bought from Origene; also called MYC (TP760019); source: bought: Origene (TP760019), purified
Assay: co-IP; in vitro: 5 ug of each purified protein mixed in 100 ul of 1% NP-40, 120 mM NaCl, 40 mM tris-HCl pH 7.4, 1.5 mM sodium orthovanadate, 50 mM sodium fluoride, 10 mM sodium pyrophosphate, protease inhibitors, 6 h at 4 °C, then immunoprecipitation
Conditions: both partners purified

T1 sequence (P01106 whole entry): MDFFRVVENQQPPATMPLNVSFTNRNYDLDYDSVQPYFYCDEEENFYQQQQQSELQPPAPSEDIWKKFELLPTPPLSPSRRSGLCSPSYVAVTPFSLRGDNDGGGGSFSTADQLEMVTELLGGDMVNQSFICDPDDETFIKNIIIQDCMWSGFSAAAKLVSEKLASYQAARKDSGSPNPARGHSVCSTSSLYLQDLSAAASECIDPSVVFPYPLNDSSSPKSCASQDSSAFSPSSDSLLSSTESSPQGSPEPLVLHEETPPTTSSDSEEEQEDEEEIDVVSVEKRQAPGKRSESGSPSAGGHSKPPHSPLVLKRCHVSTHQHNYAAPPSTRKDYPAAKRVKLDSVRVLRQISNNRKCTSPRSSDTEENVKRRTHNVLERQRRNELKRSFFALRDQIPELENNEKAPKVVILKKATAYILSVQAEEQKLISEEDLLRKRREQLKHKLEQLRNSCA

B1: Purified GST-tagged HDAC3 (enzyme, UniProt O15379 1-428, looked up)
chain: MAKTVAYFYDPDVGNFHYGAGHPMKPHRLALTHSLVLHYGLYKKMIVFKPYQASQHDMCRFHSEDYIDFLQRVSPTNMQGFTKSLNAFNVGDDCPVFPGLFEFCSRYTGASLQGATQLNNKICDIAINWAGGLHHAKKFEASGFCYVNDIVIGILELLKYHPRVLYIDIDIHHGDGVQEAFYLTDRVMTVSFHKYGNYFFPGTGDMYEVGAESGRYYCLNVPLRDGIDDQSYKHLFQPVINQVVDFYQPTCIVLQCGADSLGCDRLGCFNLSIRGHGECVEYVKSFNIPLLVLGGGGYTVRNVARCWTYETSLLVEEAISEELPYSEYFEYFAPDFTLHPDVSTRIENQNSRQYLDQIRQTIFENLKMLNHAPSVQIHDVPADLLTYDRTDEADAEERGPEENYSRPEAPNEFYDGDHDNDKESDVEI
notes: Histone deacetylase 3, purified recombinant protein bought from Sino Biological; also called HDAC3 (11511-H20B); source: bought: Sino Biological (11511-H20B), purified
- binding result: binds
